# Biological target: TamL, FAD-dependent oxidase (flavoprotein) of the tirandamycin biosynthetic gene cluster (Streptomyces sp. 307-9)
# Test: crystal structure
substance,measurement,value
"TamL, FAD-dependent oxidase (flavoprotein) of the tirandamycin biosynthetic gene cluster (enzyme)",stoichiometry N,2
